From patent US7241873B2, “Recombinant anti-osteopontin antibody and use thereof” (Juridical Foundation the Chemo-sero-therapeutic Research …, priority 2001, dated 2007)
Where a chain is given by its changes, count along the chain named. No end group written: not given here. *: point of attachment. Biotin = O=C1N[C@H]2[C@H](CS[C@H]2CCCCC(=O)*)N1

Legend:
[1] = target: BSA-crosslinked osteopontin peptide (BSA-CVDTYDGRGDSVVYGLRS) (Homo sapiens, UniProt P10451); assay: ELISA binding to osteopontin peptide
Description: Based on the concentrations of the humanized 2K1 antibody and the chimera 2K1 antibody as determined in Example 13, the binding activities of the humanized 2K1 antibody and the chimera 2K1 antibody with osteopontin peptide (CVDTYDGRGDSVVYGLRS) (SEQ ID NO: 1) were compared with reference to the ELISA of Kon et al. (Journal of Cellular […]: 420–432 (2002)).
Dilution series of the humanized 2K1 antibody and the chimera 2K1 antibody reacted on a microtiter plate with BSA-crosslinked osteopontin peptide (BSA-CVDTYDGRGDSVVYGLRS)(SEQ ID NO: 1) immobilized thereon. Then, the antibodies bound to BSA-CVDTYDGRGDSVVYGLRS (SEQ ID NO: 1) reacted with protein A-HRP, and finally with TMB (Dojindo Corporate), to measure the absorbance at a wavelength of 450 nm.
Additionally, reaction on a plate with only BSA immobilized thereon as a negative control was also measured in the same manner.
As a negative control, additionally, the binding activity of the chimera 2K1 antibody to BSA (open circle) and the binding activity of the humanized 2K1 antibody to BSA (open square) are also shown.

[2] = target: T1, biotinylated partial peptide GRGDSVVYGLR of human osteopontin (human); assay: SPR BIACORE-2000, biotinylated peptide on sensor chip SA, antibody as analyte, global fitting 1:1 (Langmuir)
T1 construct: Captured on a BIACORE sensor chip SA (23 RU)
T1 peptide: Biotin-GRGDSVVYGLR
Protocol: The KD value of the chimera 2K1 antibody was assayed in the following manner. First, a partial peptide GRGDSV-VYGLR (residues 7–17 of SEQ ID NO: 1) of the human osteopontin was biotinylated with a biotinylation kit (Dojindo Corporate). A sensor chip SA was set on BIA-CORE-2000, to bind 23 RU of a ligand (Bin-GRGDSV-VYGLR)(residues 7–17 of SEQ ID NO: 1). […] The data of these sensor grams were analyzed by global fitting at 1:1 (Langmuir) binding by a BIACORE analysis software BIA Evaluation Version 3.0. FIG. 6a is a sensor gram at various concentrations of the murine 2K1 antibody. FIG. 6b is a sensor gram at various concentrations of the chimera 2K1 antibody.
As the results of the measurement, the KD value of the murine 2K1 antibody was 1.2 ×10^-10 M, while the KD value of the chimera 2K1 antibody was 9.2 ×10^-11 M. No reduction of the affinity of the chimera 2K1 antibody was observed due to the chimera preparation of the murine 2K1 antibody.

GST-OPN-c = target: T2, GST-OPN-c (human, UniProt P08515 1-218 = GST; P10451 1-287); assay: Western blotting
T2 construct: Isoform c of human osteopontin; made in E. coli; also called GST fusion protein of human osteopontin-c; not shown: vector-encoded junction between GST and OPN not described
T2 sequence (P08515 1-218, tags or fused parts left off): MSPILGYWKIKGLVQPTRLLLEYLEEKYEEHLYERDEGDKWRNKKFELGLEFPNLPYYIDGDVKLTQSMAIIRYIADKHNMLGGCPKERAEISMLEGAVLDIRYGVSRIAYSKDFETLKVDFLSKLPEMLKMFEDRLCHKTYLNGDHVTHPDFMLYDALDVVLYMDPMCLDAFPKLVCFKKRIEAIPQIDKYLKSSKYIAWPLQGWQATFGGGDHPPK

CHO/OPN-a = target: T3, CHO/OPN-a (human, UniProt P10451 17-314, sugar chain-bound type (glycosylated)); assay: Western blotting
T3 construct: mature; also called full-length OPN
T3 sequence (P10451 17-314): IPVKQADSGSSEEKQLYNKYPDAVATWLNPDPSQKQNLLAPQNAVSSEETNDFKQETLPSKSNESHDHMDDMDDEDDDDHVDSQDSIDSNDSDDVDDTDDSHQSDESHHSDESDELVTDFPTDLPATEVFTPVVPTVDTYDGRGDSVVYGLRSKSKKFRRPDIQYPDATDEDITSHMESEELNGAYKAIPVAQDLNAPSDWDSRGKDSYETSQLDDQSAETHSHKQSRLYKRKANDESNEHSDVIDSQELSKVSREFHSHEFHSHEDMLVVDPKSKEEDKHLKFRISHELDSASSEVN

[3] = target: thrombin-cleaved OPN (human) (UniProt P10451); assay: cell-based or functional assay
thrombin-cleaved OPN (human), sequence (P10451 17-168 limits assumed, form in doubt, chain 1 of 2): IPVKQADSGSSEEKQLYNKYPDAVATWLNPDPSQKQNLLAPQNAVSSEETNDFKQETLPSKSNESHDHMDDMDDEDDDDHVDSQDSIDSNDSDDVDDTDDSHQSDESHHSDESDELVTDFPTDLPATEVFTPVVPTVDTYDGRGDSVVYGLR
thrombin-cleaved OPN (human), sequence (P10451 169-314 limits assumed, form in doubt, chain 2 of 2): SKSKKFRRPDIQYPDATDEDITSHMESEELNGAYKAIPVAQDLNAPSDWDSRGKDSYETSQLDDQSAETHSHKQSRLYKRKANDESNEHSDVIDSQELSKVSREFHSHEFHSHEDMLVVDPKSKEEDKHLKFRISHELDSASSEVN

[4] = target: T4, BSA-crosslinked osteopontin peptide BSA-CVDTYDGRGDSVVYGLRS (human, also: crosslinked to BSA, linkage chemistry not given here); assay: ELISA on a plate with BSA-CVDTYDGRGDSVVYGLRS, detection with protein A-HRP and TMB, OD450
T4 construct: Peptide carries an added N-terminal cysteine; immobilized on a microtiter plate as BSA conjugate; also called Peptide 1
T4 peptide: {BSA}-CVDTYDGRGDSVVYGLRS

bovine serum albumin = target: T5, bovine serum albumin (bovine, UniProt P02769 25-607); assay: ELISA on a plate with BSA alone, detection with protein A-HRP and TMB, OD450
T5 construct: also called BSA
T5 sequence (P02769 25-607 limits assumed): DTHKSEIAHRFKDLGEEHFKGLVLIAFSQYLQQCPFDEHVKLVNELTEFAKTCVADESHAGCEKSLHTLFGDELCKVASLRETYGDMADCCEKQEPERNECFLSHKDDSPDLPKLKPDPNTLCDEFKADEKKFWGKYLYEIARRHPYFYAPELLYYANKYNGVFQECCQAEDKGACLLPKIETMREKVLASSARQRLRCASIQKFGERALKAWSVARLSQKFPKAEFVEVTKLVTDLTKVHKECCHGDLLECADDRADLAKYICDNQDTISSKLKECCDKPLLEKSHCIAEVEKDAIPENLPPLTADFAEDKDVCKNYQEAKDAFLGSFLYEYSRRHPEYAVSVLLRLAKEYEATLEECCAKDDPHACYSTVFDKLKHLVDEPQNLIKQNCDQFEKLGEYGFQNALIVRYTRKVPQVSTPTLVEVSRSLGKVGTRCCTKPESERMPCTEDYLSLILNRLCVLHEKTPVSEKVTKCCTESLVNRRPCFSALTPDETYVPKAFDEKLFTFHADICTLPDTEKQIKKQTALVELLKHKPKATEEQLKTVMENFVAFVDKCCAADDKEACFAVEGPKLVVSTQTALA

B1: humanized 2K1 antibody: humanized antibody with CDRs of murine 2K1; VH SEQ ID NO: 28, VL SEQ ID NO: 30, human Igγ1/Igκ (antibody, V domains shown)
VH: MDWTWRVFCLLAVAPGAHSQVQLVQSGAEVKKPGSSVKVSCKASGGTFSDYEMHWVRQAPGQGLEWMGAIHPGRGGTAYNQKFKGRVTITADKSTSTAYMELSSLRSEDTAVYYCARITGYFDVWGQGTTVTVSS
VL: MGWSCIILFLVATATGVHSDVVMTQSPLSLPVTLGQPASISCRSSQSIVHSNGNTYLEWYLQKPGQSPQLLIYKVSNRFSGVPDRFSGSGSGTDFTLKISRVEAEDVGVYYCFQGSHVPLTFGQGTKLEIKR
modifications: human IgG1/kappa constant regions
- antigen binding activity compared with the original murine 2K1 antibody [1]: identical to that of the original murine 2K1 antibody
- binding activity to BSA-CVDTYDGRGDSVVYGLRS ([1]; ELISA, absorbance 450 nm, FIG. 13): had binding activities
- binding activity to BSA (negative control plate) ([1]; ELISA, plate with only BSA immobilized): not to BSA
- comparison of binding activities of both antibodies to BSA-CVDTYDGRGDSVVYGLRS ([1]; humanized versus chimera 2K1 antibody): at the same level

B2: murine monoclonal antibody 2K1 (antibody, V domains shown)
VH: QVQLQQSGAELVRPGASVKLSCKALGYTFTDYEMHWVKQTPVHGLEWIGAIHPGRGGTAYNQKFKGKATLTADKSSSTAYMELSSLTSEDSAVYYCTRITGYFDVWGAGTTVTVSS
VL: DVLMTQTPLSLPVSLGDQASISCRSSQSIVHSNGNTYLEWYLQKPGQSPKLLIYKVSNRFSGVPDRFSGSGSGTDFTLKISRVEAEDLGVYYCFQGSHVPLTFGAGTKLELKR
notes: also called murine 2K1 antibody; murine antibody 2K1
- Kd [2]: 120 pM
- binding result (GST-OPN-c): binds
- binding result (CHO/OPN-a): binds
- Mean migrating cell counts per 1 mm^3; monocyte; thrombin-cleaved OPN 10 µg/mL, murine 2K1 antibody 0.4 µg/mL (cells per 1 mm^3) [3]: 258
- Mean migrating cell counts per 1 mm^3; monocyte; thrombin-cleaved OPN 10 µg/mL, murine 2K1 antibody 2 µg/mL (cells per 1 mm^3) [3]: 257
- Mean migrating cell counts per 1 mm^3; monocyte; thrombin-cleaved OPN 10 µg/mL, murine 2K1 antibody 10 µg/mL (cells per 1 mm^3) [3]: 160
- Mean migrating cell counts per 1 mm^3; monocyte; thrombin-cleaved OPN 10 µg/mL, murine 2K1 antibody 50 µg/mL (cells per 1 mm^3) [3]: 75
- Mean migrating cell counts per 1 mm^3; neutrophil; thrombin-cleaved OPN 10 µg/mL, murine 2K1 antibody 0.4 µg/mL (cells per 1 mm^3) [3]: 567
- Mean migrating cell counts per 1 mm^3; neutrophil; thrombin-cleaved OPN 10 µg/mL, murine 2K1 antibody 2 µg/mL (cells per 1 mm^3) [3]: 550
- Mean migrating cell counts per 1 mm^3; neutrophil; thrombin-cleaved OPN 10 µg/mL, murine 2K1 antibody 10 µg/mL (cells per 1 mm^3) [3]: 450
- Mean migrating cell counts per 1 mm^3; neutrophil; thrombin-cleaved OPN 10 µg/mL, murine 2K1 antibody 50 µg/mL (cells per 1 mm^3) [3]: 427

B3: mouse-human chimera 2K1 antibody (antibody, V domains shown)
VH: B2 VH
VL: B2 VL
notes: Expressed in CHO-DG44; also called C2K1 antibody; 2K1 chimera antibody
- Kd [2]: 92 pM
- binding result [4]: binds
- binding result (bovine serum albumin): no binding (tested: 50 ng/ml)

B4: humanized 2K1 antibody (antibody, V domains shown)
VH: QVQLVQSGAEVKKPGSSVKVSCKASGGTFSDYEMHWVRQAPGQGLEWMGAIHPGRGGTAYNQKFKGRVTITADKSTSTAYMELSSLRSEDTAVYYCARITGYFDVWGQGTTVTVSS
VL: B2 VL with L3V, T7S, S14T, D17Q, Q18P, K50Q, L88V, A105Q, L111I
notes: Human Igγ1 / Igκ constant regions (vectors AG-γ1 and AG-κ); Tested as CHO-DG44 culture supernatant; also called R2K1 antibody
- binding result [4]: binds
- binding result (bovine serum albumin): no binding (tested: 50 ng/ml)
